Measured values as given in the supplement of paper PMC10567573.
± gives the standard deviation.

Assay: protein stability index of a GFP-peptide fusion (GPS, HEK-293T) (PSI 1-6); higher = more stable
Details: c terminus: a fixed tail appended
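Note: 24-mer peptide tiles fused after GFP, lentivirally expressed, FACS-sorted into six equal bins by GFP/DsRed ratio, decoded by Illumina sequencing, PSI is the read-weighted mean bin number.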

| Sequence | protein stability index (treatment: DMSO) | protein stability index (treatment: MLN4924 1 uM, 8 h) |
| --- | --- | --- |
| GHGADVLCLDLAPSETGNTFVSGG [GNB5] | 4.24 ± 0.084 | 4.33 ± 0.4 |
| GIVGLNNIKANDYANAVLQALSNV [USP39] | 2.25 ± 0.42 | 2.25 ± 0.45 |
| GKDVATQILEGELFDFDLEVKPVL [RSPH3] | 3.79 ± 0.087 | 3.81 ± 0.46 |
| GLAKCNGLSHSHDLSMDGLFGTIA [RIPK4] | 2.47 ± 0.43 | 2.38 ± 0.13 |
| GLAYDRKKVSKAAILARIKRTGDG [SCD] | 3.27 ± 0.24 | 3.63 ± 0.35 |
| GLGAGFGGGFAGGDGLLVGSEKVT [KRT16] | 3.98 ± 0.11 | 4.081 ± 0.035 |
| GLSQGLVDREKGLSAEPGWQAKRE [CHGA] | 4.92 ± 0.29 | 4.84 ± 0.4 |
| GLVDFRDVALALAALDGGRSLEEL [LPCAT4] | 2.51 ± 0.34 | 3.17 ± 0.33 |
| GPAGGLADLSSGSSGEDDDFKSCP [PWWP2B] | 5.43 ± 0.22 | 5.45 ± 0.26 |
| GPDDSLWDKHACPAYVGPEILSSR [TRIB3] | 3.56 ± 0.25 | 3.54 ± 0.33 |
| GPEDLSYQIYDVSGESNSAVSTED [LARP4] | 5.39 ± 0.17 | 5.44 ± 0.13 |
| GPESPPPPYSRLSPRDEYKPLDLS [SMAD6] | 4.67 ± 0.15 | 4.78 ± 0.2 |
| GPFGVNHGVELHSDVIEYAKQKLD [PCMTD2] | 3.94 ± 0.6 | 4.28 ± 0.25 |
| GPGIVGNVLVDPSARIGQNCSIGP [GMPPB] | 3.74 ± 0.32 | 3.81 ± 0.21 |
| GPHPKSKIENGYPLHAPEAYFPYF [CDC14A] | 2.53 ± 0.21 | 2.69 ± 0.13 |
| GPILQKDYVQLENQWETPPEDLQT [ZNF449] | 4.94 ± 0.11 | 5 ± 0.28 |
| GPPGSPGRAGAVGTPGERGPPGPP [EMID1] | 5.32 ± 0.84 | 4.81 ± 0.84 |
| GPRRLVSCLSSQSSALSQSGGGST [SPACA3] | 3.81 ± 0.22 | 4 ± 0.19 |
| GQLYAMELQGFWMDIGQPKDFLTG [GMPPB] | 2.01 ± 0.47 | 1.92 ± 0.13 |
| GRKFLQKHLNASNPTEPATIIFTA [TOR1AIP2] | 2.35 ± 0.36 | 2.13 ± 0.32 |
| GRKKYDIDPRNGIPKLTPGDNPYM [SPATS1] | 3.57 ± 0.18 | 3.71 ± 0.32 |
| GRNDLQQWIEVDARRLTRFTGVIT [CPXM2] | 2.43 ± 0.062 | 2.56 ± 0.12 |

| Sequence | protein stability index (treatment: DMSO) | protein stability index (treatment: MLN4924 1 uM, 8 h) |
| --- | --- | --- |
| GRRCKKCTEGPIDLVFVIDGSKSL [MATN2] | 2.06 ± 0.35 | 2.41 ± 0.44 |
| GRRLKSPQAPDPEEEENRDSQQPG [FANCE] | 5.44 ± 0.25 | 5.67 ± 0.27 |
| GRRYEAVKWMVVFAIGVCTGLVGL [CLCN6] | 3.33 ± 0.1 | 3.2 ± 0.092 |
| GSAGGLGSTLGGSSYSSCYSFGSG [KRT17] | 3.29 ± 0.13 | 3.43 ± 0.33 |
| GSILQFNPEVGIFVSIAQSEQESL [SMG5] | 3.07 ± 0.38 | 2.92 ± 0.18 |
| GSQPNSGLALESSSGLQDVTGPDN [NFE2L1] | 5.45 ± 0.21 | 5.44 ± 0.3 |
| GSVALGPVCPTVCPPGGIHQVTVN [KRT71] | 3.55 ± 0.34 | 3.52 ± 0.28 |
| GTEQAPYGMQTQNYPKGGLLDSMC [ETS2] | 3.59 ± 0.17 | 3.84 ± 0.4 |
| GVGGWRDYGVDPSQFSGTLMRTCE [PPTC7] | 2.81 ± 0.36 | 3.28 ± 0.74 |
| GVKISEQQAEKILKSMDKNGTMTI [SLC25A25] | 3.73 ± 0.13 | 3.7 ± 0.22 |
| GVRSREDAQGSEMVTCKSEFYHDE [GAN] | 5.22 ± 0.12 | 5.08 ± 0.47 |
| GWGDCVWLPYLYTLQGLYLVYHPV [DHCR7] | 3.81 ± 0.74 | 3.25 ± 0.55 |
| GYQLSDHTVGVLFNNGAHMSLLPD [PLK2] | 3.08 ± 0.2 | 3.14 ± 0.081 |
| HAFPVVTENRGNEKEFMKGNQLIS [CLCN6] | 4.08 ± 0.078 | 4.12 ± 0.067 |
| HCNLFVYSSSKGSLRLCDMRAAAL [PPP2R2C] | 2.6 ± 0.69 | 2.63 ± 0.35 |
| HDIIKHPMDLSTVKRKMDGREYPD [BRD3] | 5.02 ± 0.19 | 5.1 ± 0.11 |
| HESVCKYYLCGFCPAELFTNTRSD [LUC7L3] | 2.17 ± 0.33 | 2.54 ± 0.29 |
| HGAHKHHPIEEAAEEHREKLLKQM [TRIM43] | 5.17 ± 0.24 | 5.14 ± 0.14 |
| HHDKVQSLCYLQLTRQLVSCSSDG [WDFY1] | 2.2 ± 0.36 | 2.06 ± 0.28 |
| HKQLLLFHNAVSAYFAGNQKQLEQ [ARFIP2] | 2.19 ± 0.45 | 2.17 ± 0.18 |
| HLEVKFMNPYNAVLTKKFQVTMRG [FBXO39] | 2.17 ± 0.22 | 2.28 ± 0.22 |
| HLKKVASRYQNNIKNDKYGPWLEW [PRIM1] | 2.23 ± 0.38 | 2.3 ± 0.25 |

| Sequence | protein stability index (treatment: DMSO) | protein stability index (treatment: MLN4924 1 uM, 8 h) |
| --- | --- | --- |
| HLVPVIEMWADQLTSLKDLYKSLK [CEP70] | 2.47 ± 0.5 | 2.32 ± 0.39 |
| HMLLNTTLNIKETDSKELSMAKEV [ZBED1] | 4.26 ± 0.17 | 4.35 ± 0.2 |
| HPAFLPQRQAIKGAFYRRAQRLRP [KCNG1] | 3.32 ± 0.37 | 3.58 ± 0.33 |
| HPVNPPYYIPLVELVPHPETAPTT [CRYL1] | 3.51 ± 0.33 | 3.51 ± 0.22 |
| HQGEEEGPLDIWAVVKPGNTKEKI [FBXO34] | 4.6 ± 0.15 | 4.76 ± 0.27 |
| HRDSSQAIPITELTKSQVQDKPYK [ZNF8] | 4.96 ± 0.2 | 5.1 ± 0.3 |
| HRLKLRLAIQEMVSLTSPSAPPTS [PPFIA4] | 2.5 ± 0.43 | 2.46 ± 0.24 |
| HRLLNMARNNNDPGRLTEALCLEV [RNF180] | 3.89 ± 0.33 | 3.96 ± 0.28 |
| HRRFCELLPQEQRSVESSLRAQVP [CIB1] | 3.63 ± 0.13 | 3.66 ± 0.15 |
| HRTHTGERPYGCDECEKAYFYMSC [ZNF649] | 2.68 ± 0.17 | 2.54 ± 0.26 |
| HRWPSNMYLKQLAEYRKYIHSRKC [RHOBTB3] | 2.75 ± 0.37 | 3.19 ± 0.27 |
| HSGEKPFICKECGKAYGWCSELIR [ZNF232] | 2.22 ± 0.25 | 2.72 ± 0.66 |
| HTEERPFKCNYCGKSFRQRPSLVI [ZNF449] | 2.37 ± 0.15 | 2.44 ± 0.28 |
| HVAAAVLRIRSVEGRKKAFSTCGS [OR3A1] | 2.3 ± 0.24 | 2.22 ± 0.34 |
| HVYIGSAGLDWQSLGQMKELGVIF [PLD5] | 2.49 ± 0.71 | 2.58 ± 1.1 |
| IAAGEVIQRPANAIKEMIENCLDA [MLH1] | 4.26 ± 0.18 | 4.3 ± 0.34 |
| IAHRGERRGIGGIFFDDLDSPSKE [CPOX] | 4.57 ± 0.4 | 4.72 ± 0.21 |
| ICNNKWFTDTSIILFLNKKDLFEE [GNAI1] | 3.06 ± 0.97 | 2.83 ± 0.45 |
| IDAVPVDENLFTGEDLDELEEELN [ZC3H15] | 5.53 ± 0.21 | 5.51 ± 0.19 |
| IEVFDPDANTWRLYGGMNYRRLGG [KLHL20] | 2.38 ± 0.45 | 2.17 ± 0.26 |
| IFAGVHDEKAKPRDRQQAPGLGQE [TLE6] | 4.73 ± 0.2 | 4.81 ± 0.065 |
